Columns and labels:
c-Src SH2 = assay: SH2 binding enrichment of the phosphorylated peptide, bacterial display (enrichment ratio); higher = better substrate or ligand; peptides without Tyr show the background
Grb2 SH2 = Grb2 SH2 (UniProt P62993); assay: as above
SHP2-C SH2 = assay: as above
MERTK = MERTK (UniProt Q12866); assay: phosphorylation enrichment, bacterial display (enrichment ratio); higher = better substrate or ligand; peptides without Tyr show the background
Fyn = Fyn (UniProt P06241); assay: as above
Sequence of Fyn (P06241 whole entry, looked up): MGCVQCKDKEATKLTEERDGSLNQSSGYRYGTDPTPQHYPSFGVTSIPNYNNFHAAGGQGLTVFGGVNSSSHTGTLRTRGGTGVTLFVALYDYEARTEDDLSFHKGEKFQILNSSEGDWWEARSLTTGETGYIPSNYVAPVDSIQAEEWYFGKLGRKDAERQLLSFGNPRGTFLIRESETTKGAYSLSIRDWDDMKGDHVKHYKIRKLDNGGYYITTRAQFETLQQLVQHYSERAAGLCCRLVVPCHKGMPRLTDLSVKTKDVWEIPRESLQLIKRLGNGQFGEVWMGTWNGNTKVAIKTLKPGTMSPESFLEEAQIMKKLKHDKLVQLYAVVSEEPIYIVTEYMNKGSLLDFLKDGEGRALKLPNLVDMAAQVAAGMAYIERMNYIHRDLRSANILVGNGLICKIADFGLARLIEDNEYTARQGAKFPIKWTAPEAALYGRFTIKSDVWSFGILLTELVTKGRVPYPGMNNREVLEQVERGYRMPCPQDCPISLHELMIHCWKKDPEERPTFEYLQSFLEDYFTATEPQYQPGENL

EPHB2 = EPHB2 (UniProt P29323); assay: as above
Sequence of EPHB2 (P29323 whole entry, looked up): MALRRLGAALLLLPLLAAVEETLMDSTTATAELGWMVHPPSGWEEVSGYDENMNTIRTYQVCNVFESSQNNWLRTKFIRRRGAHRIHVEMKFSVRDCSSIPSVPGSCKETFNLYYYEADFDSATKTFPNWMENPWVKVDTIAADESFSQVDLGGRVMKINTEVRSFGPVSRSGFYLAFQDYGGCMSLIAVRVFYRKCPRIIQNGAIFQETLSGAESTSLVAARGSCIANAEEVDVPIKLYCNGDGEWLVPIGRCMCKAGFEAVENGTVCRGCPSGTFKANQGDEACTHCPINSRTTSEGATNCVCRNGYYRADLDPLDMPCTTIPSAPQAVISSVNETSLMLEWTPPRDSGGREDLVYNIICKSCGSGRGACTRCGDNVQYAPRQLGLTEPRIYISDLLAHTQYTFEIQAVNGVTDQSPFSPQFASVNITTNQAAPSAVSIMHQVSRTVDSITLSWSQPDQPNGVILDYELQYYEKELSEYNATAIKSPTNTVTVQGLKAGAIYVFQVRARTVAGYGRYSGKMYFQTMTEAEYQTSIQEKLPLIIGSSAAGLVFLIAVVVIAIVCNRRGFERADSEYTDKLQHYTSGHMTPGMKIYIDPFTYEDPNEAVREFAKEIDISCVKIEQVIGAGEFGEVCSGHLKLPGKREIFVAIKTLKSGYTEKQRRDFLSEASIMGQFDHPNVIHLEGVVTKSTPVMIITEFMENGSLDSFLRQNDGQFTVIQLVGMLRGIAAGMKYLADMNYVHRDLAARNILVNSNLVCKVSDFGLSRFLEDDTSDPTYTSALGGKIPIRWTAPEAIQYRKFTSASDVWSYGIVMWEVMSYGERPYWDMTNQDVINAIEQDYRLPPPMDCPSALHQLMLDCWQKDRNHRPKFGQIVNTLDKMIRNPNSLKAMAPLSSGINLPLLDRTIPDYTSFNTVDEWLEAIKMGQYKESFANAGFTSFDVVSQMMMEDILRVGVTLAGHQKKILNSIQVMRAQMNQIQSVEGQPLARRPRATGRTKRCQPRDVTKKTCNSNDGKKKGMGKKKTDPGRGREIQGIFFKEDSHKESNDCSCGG

Jak2 = Jak2 (UniProt O60674); assay: as above
FGFR1 = FGFR1 (UniProt P11362); assay: as above
EPHB1 = EPHB1 (UniProt P54762); assay: as above
Sequence of EPHB1 (P54762 whole entry, looked up): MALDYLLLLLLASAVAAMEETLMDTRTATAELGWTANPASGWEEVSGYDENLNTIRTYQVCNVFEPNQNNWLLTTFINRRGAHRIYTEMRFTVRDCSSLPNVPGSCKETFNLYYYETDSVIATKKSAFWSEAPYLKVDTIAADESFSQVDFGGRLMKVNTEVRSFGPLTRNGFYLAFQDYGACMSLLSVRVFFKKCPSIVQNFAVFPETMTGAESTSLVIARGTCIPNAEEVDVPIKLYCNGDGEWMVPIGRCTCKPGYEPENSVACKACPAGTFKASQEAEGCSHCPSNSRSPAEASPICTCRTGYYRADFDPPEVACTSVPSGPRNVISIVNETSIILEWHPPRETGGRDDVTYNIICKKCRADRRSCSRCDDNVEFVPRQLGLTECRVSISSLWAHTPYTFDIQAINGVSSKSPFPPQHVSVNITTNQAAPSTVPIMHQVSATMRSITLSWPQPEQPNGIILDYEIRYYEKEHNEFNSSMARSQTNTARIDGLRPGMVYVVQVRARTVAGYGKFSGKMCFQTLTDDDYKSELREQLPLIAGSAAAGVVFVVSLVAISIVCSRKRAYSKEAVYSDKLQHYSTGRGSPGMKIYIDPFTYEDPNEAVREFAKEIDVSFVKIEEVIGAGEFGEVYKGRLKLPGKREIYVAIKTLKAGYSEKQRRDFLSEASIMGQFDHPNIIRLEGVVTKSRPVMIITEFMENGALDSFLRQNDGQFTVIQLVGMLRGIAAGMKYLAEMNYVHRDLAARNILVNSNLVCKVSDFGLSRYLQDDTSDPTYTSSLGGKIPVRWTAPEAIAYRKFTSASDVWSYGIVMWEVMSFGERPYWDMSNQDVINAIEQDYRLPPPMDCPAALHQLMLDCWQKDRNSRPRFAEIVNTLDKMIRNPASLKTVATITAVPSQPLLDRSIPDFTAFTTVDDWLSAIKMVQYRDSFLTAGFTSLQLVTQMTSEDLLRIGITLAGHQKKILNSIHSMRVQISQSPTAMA

c-Src = assay: as above
Fes = Fes (UniProt P07332); assay: as above
Sequence of Fes (P07332 whole entry, looked up): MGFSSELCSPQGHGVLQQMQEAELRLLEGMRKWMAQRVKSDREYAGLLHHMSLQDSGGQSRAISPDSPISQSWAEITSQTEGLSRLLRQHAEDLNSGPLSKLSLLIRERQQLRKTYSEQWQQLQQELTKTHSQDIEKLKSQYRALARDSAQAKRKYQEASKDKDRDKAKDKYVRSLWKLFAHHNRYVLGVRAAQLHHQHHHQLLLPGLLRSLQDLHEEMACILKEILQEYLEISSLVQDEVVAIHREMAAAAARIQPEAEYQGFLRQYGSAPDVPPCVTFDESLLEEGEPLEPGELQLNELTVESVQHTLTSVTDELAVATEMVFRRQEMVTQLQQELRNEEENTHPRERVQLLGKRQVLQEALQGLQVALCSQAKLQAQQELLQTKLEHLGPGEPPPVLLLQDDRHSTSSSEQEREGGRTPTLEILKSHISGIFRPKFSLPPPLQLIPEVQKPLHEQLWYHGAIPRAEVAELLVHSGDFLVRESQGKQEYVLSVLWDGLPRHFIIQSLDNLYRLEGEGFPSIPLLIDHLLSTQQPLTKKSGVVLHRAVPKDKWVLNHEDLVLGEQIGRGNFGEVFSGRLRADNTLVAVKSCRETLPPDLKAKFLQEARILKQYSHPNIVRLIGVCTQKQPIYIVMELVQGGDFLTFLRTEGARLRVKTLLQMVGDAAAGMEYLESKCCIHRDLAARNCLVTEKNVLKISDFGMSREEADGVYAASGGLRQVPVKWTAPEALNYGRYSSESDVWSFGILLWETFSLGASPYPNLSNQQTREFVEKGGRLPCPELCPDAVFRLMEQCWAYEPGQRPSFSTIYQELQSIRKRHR

c-Abl (mouse) = assay: as above
FGFR3 = FGFR3 (UniProt P22607); assay: as above
Hck = Hck (UniProt P08631); assay: as above
Sequence of Hck (P08631 whole entry, looked up): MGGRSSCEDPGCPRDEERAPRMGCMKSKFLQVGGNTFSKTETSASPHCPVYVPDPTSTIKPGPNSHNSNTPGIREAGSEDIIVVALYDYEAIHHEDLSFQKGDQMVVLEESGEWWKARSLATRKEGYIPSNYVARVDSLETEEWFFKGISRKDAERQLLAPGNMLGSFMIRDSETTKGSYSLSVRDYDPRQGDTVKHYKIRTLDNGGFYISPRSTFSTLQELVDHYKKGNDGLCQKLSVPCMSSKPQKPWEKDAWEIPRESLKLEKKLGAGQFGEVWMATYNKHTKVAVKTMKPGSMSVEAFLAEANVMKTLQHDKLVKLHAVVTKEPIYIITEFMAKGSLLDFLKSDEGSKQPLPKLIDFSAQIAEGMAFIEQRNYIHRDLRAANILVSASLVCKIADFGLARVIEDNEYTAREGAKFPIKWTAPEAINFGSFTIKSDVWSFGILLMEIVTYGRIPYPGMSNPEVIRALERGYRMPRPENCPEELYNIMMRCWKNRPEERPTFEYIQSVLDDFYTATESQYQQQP

Fer (mouse) = assay: as above
AncSZ = assay: as above
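For SH2 binding enrichment of the phosphorylated peptide, bacterial display in this document: peptide library displayed on the E. coli surface as eCPX fusions, selected cells deep-sequenced, score is each peptide's frequency after selection divided by its frequency in the input.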
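For phosphorylation enrichment, bacterial display in this document: 11-residue human phosphosite peptides and single-mutation variants displayed on the E. coli surface, counted by deep sequencing, each peptide's frequency after selection divided by its frequency in the unselected input library; frequency after pTyr selection over input frequency; kinase dosed for 20-30% of maximal phosphorylation in three min.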

Sequence of MERTK (Q12866 whole entry, looked up): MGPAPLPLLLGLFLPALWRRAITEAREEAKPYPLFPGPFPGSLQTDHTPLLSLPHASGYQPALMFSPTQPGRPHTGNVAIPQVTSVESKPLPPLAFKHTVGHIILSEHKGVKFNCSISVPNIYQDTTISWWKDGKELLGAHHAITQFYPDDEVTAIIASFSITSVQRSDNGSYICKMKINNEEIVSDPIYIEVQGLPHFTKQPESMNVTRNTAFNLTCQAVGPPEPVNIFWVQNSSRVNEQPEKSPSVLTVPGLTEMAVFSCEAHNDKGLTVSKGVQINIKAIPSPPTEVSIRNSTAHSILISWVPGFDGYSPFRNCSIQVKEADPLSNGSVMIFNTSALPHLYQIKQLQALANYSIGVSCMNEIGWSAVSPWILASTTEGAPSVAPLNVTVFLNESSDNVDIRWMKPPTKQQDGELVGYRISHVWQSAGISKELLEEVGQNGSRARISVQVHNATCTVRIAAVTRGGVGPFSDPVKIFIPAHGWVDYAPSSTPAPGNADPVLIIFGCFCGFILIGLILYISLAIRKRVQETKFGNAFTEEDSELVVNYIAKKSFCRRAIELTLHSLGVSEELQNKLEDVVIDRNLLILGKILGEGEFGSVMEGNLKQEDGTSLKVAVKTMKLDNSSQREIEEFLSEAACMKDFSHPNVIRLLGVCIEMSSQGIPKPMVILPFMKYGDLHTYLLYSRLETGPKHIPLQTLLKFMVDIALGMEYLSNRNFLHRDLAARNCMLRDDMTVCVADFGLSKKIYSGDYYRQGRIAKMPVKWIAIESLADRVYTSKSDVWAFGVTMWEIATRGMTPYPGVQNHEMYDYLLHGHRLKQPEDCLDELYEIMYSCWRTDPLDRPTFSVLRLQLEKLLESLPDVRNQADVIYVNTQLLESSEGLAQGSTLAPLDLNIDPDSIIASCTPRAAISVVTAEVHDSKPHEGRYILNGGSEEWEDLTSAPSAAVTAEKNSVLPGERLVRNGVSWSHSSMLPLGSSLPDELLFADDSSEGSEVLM

| Sequence | SH2 binding enrichment (c-Src SH2) | SH2 binding enrichment (Grb2 SH2) | SH2 binding enrichment (SHP2-C SH2) | phosphorylation enrichment (MERTK) | phosphorylation enrichment (Fyn) | phosphorylation enrichment (EPHB2) | phosphorylation enrichment (Jak2) | phosphorylation enrichment (FGFR1) | phosphorylation enrichment (EPHB1) | phosphorylation enrichment (c-Src) | phosphorylation enrichment (Fes) | phosphorylation enrichment (c-Abl (mouse)) | phosphorylation enrichment (FGFR3) | phosphorylation enrichment (Hck) | phosphorylation enrichment (Fer (mouse)) | phosphorylation enrichment (AncSZ) |
| --- | --- | --- | --- | --- | --- | --- | --- | --- | --- | --- | --- | --- | --- | --- | --- | --- |
| NLMPAYYKCIQ [CYP21A2_Y190] | 0.522 | 0.596 | 0.444 | 0.57 | 0.432 | 0.496 | 1.34 | 0.57 | 0.708 | 0.51 | 1.28 | 1.24 | 0.866 | 0.507 | 0.626 | 1.09 |
| GHLFANDWISI [BEST1_Y227_Y227N_YF] | 0.493 | 0.904 | 0.708 | 0.421 | 0.399 | 0.625 | 0.782 | 0.43 | 0.424 | 0.469 | 0.789 | 0.627 | 0.484 | 0.502 | 0.427 | 0.703 |
| CHRQLYHKCTH [F12_Y58_Y53C] | 1.5 | 1.53 | 1.3 | 0.543 | 0.402 | 0.461 | 0.667 | 0.494 | 0.447 | 0.457 | 0.796 | 0.599 | 0.576 | 0.471 | 0.491 | 0.497 |
| LLANAYIYDVQ [L1CAM_Y418_V421D] | 0.818 | 0.803 | 1.13 | 2.71 | 6.7 | 1.56 | 1.22 | 0.391 | 1.46 | 3.69 | 1.27 | 0.538 | 0.616 | 4.13 | 0.802 | 1.17 |
| VIECSYTSADG [DHCR7_Y382] | 1.63 | 0.837 | 0.601 | 0.423 | 0.478 | 0.538 | 0.934 | 0.544 | 0.524 | 0.556 | 1.39 | 0.825 | 0.623 | 0.471 | 0.496 | 1.02 |
| EFGEVYKGTLK [EPHA2_Y628_M631T] | 0.473 | 0.808 | 0.393 | 0.362 | 0.373 | 0.409 | 0.425 | 0.386 | 0.539 | 0.376 | 0.549 | 0.521 | 0.426 | 0.398 | 0.448 | 0.603 |
| EARRVYGDIIY [ALDH5A1_Y175_H180Y] | 0.504 | 0.805 | 0.604 | 0.42 | 1.59 | 0.725 | 0.813 | 0.491 | 0.455 | 1.14 | 0.834 | 0.597 | 0.579 | 1.27 | 0.648 | 0.683 |
| LRNIDYHRLDG [ATRX_Y2083_Y2084H] | 0.714 | 0.725 | 1.25 | 0.379 | 0.342 | 0.405 | 0.632 | 0.511 | 0.42 | 0.297 | 0.606 | 0.521 | 0.617 | 0.33 | 0.571 | 0.497 |
| RASGIYFVPKG [APBB1IP_Y340_YF] | 0.935 | 1.12 | 1.11 | 13.8 | 6.15 | 2.37 | 2.91 | 1.71 | 5.1 | 4.75 | 1.2 | 34.3 | 1.71 | 8.1 | 0.731 | 1.17 |
| AKIDGYIISFR | 0.576 | 0.936 | 0.547 | 0.37 | 0.412 | 0.412 | 1.06 | 0.472 | 0.575 | 0.315 | 1.13 | 0.559 | 0.654 | 0.365 | 0.386 | 1.1 |
| KENITYMKREQ [L1TD1_Y24] | 0.498 | 0.809 | 0.692 | 0.453 | 0.443 | 0.514 | 0.828 | 0.462 | 0.498 | 0.58 | 1.05 | 0.703 | 0.554 | 0.554 | 0.431 | 0.827 |
| KGSEGYLAATF [NF1_Y2503_YF] | 0.474 | 0.766 | 0.847 | 0.514 | 0.501 | 0.402 | 0.709 | 0.444 | 0.41 | 0.564 | 0.658 | 0.634 | 0.549 | 0.416 | 0.45 | 0.654 |
| GFPVHYTDMSN [DNMT3B_Y815_V818M] | 3.25 | 0.787 | 6.03 | 0.545 | 0.536 | 0.439 | 0.667 | 0.546 | 0.388 | 0.416 | 0.699 | 0.568 | 0.501 | 0.417 | 0.419 | 0.947 |
| GFPVHYTDVSN [DNMT3B_Y815] | 3.96 | 0.793 | 7.67 | 0.526 | 0.43 | 0.485 | 0.51 | 0.439 | 0.477 | 0.398 | 0.653 | 0.5 | 0.686 | 0.433 | 0.708 | 0.661 |
| PFTRNYFVWAV [CYBA_Y87_R90W_YF] | 0.534 | 0.939 | 0.771 | 9.74 | 1.56 | 3.07 | 7.13 | 13.5 | 3.63 | 1.27 | 4.28 | 4.62 | 10.9 | 1.92 | 1.97 | 4.23 |
| VFSTDCFRVGG [NTRK2_Y706_Y706C_YF] | 0.816 | 0.87 | 1.13 | 0.549 | 0.945 | 0.462 | 1.07 | 0.565 | 0.588 | 0.44 | 0.971 | 1.04 | 0.602 | 0.685 | 0.761 | 1.02 |
| KAIMTYVPSFY [ACTN4_Y260_S262P] | 1.15 | 0.818 | 1.03 | 0.439 | 0.52 | 0.63 | 0.639 | 0.378 | 0.413 | 0.472 | 0.646 | 0.803 | 0.509 | 0.425 | 0.415 | 0.67 |
| FFLGKYLQEVL [KLB_Y910_YF] | 1.29 | 1.99 | 1.71 | 0.391 | 0.342 | 0.474 | 0.911 | 0.436 | 0.486 | 0.469 | 1.19 | 0.665 | 0.498 | 0.42 | 0.441 | 0.963 |
| RAILNYIASKF [GSTA3_Y74_YF] | 0.461 | 0.927 | 0.611 | 1.7 | 0.66 | 0.86 | 1.29 | 1.08 | 0.534 | 1 | 1.73 | 1.96 | 0.861 | 0.854 | 0.994 | 1.84 |
| SDTGQYQCLVF [AXL_Y115] | 0.449 | 0.582 | 0.563 | 1.77 | 2.03 | 0.9 | 0.969 | 1.65 | 0.867 | 1.64 | 1.26 | 1.86 | 1.65 | 3.09 | 2.7 | 1.33 |
| KKHIPYSEHKS [CSNK1G2_Y206_R207S] | 1.51 | 1.62 | 1.41 | 0.606 | 0.374 | 0.644 | 1.37 | 0.483 | 0.488 | 0.781 | 1.52 | 1.53 | 1.1 | 0.565 | 0.72 | 0.718 |
| ETRWKYHFEVV [GCNT3_Y267] | 0.437 | 0.712 | 0.678 | 0.418 | 0.439 | 0.706 | 1.35 | 0.505 | 0.701 | 0.364 | 1.52 | 0.979 | 1.04 | 0.563 | 0.57 | 1.42 |

Continued, in another order:

| SH2 binding enrichment (c-Src SH2) | SH2 binding enrichment (Grb2 SH2) | SH2 binding enrichment (SHP2-C SH2) | Sequence | phosphorylation enrichment (MERTK) | phosphorylation enrichment (Fyn) | phosphorylation enrichment (EPHB2) | phosphorylation enrichment (Jak2) | phosphorylation enrichment (FGFR1) | phosphorylation enrichment (EPHB1) | phosphorylation enrichment (c-Src) | phosphorylation enrichment (Fes) | phosphorylation enrichment (c-Abl (mouse)) | phosphorylation enrichment (FGFR3) | phosphorylation enrichment (Hck) | phosphorylation enrichment (Fer (mouse)) | phosphorylation enrichment (AncSZ) |
| --- | --- | --- | --- | --- | --- | --- | --- | --- | --- | --- | --- | --- | --- | --- | --- | --- |
| 0.441 | 0.681 | 0.52 | APGNAYGDAGY [SYP_Y250_D248N] | 0.423 | 0.418 | 0.451 | 0.851 | 0.428 | 0.515 | 0.497 | 0.77 | 0.607 | 0.512 | 0.474 | 0.452 | 0.731 |
| 1.39 | 0.806 | 0.695 | PVPKTYDMLKA [PKP2_Y108] | 0.648 | 0.764 | 0.541 | 1.92 | 0.766 | 1.2 | 0.861 | 1.02 | 1.01 | 0.707 | 1.46 | 0.577 | 1.07 |
| 0.753 | 0.917 | 0.825 | KMKGDYFRSLA [YWHAG_Y130_Y133S_YF] | 0.437 | 0.399 | 0.361 | 0.633 | 0.456 | 0.457 | 0.456 | 0.675 | 0.521 | 0.602 | 0.484 | 0.436 | 0.676 |
| 0.463 | 0.766 | 0.602 | SVVVPYAPPEV [TP53_Y220_E221A] | 0.423 | 0.422 | 0.499 | 0.719 | 0.589 | 0.508 | 0.427 | 0.814 | 0.73 | 0.595 | 0.43 | 0.474 | 0.756 |
| 0.575 | 0.71 | 1.16 | ILGRFYERGSI [PAX5_Y73_T75R_YF] | 0.395 | 0.483 | 0.476 | 0.662 | 0.413 | 0.392 | 0.451 | 0.674 | 0.532 | 0.517 | 0.486 | 0.398 | 0.651 |
| 0.576 | 0.755 | 0.794 | SVVVPDEPPEV [TP53_Y220_Y220D] | 0.586 | 0.582 | 0.665 | 1.19 | 0.724 | 0.706 | 0.522 | 1.39 | 0.782 | 0.687 | 0.567 | 0.647 | 1.33 |
| 0.325 | 0.713 | 0.592 | LAAPKYKLNVD [SMARCA2_Y1190_A1188P] | 0.346 | 0.546 | 0.307 | 0.353 | 0.258 | 0.205 | 0.44 | 0.961 | 0.422 | 0.518 | 0.551 | 0.291 | 0.46 |
| 0.516 | 0.52 | 0.482 | QISQDYGVLLE [PRDX3_Y172_R170Q] | 0.603 | 0.828 | 1.21 | 1.32 | 0.851 | 0.876 | 0.981 | 1.69 | 1.18 | 0.792 | 0.743 | 0.673 | 1.37 |
| 0.446 | 0.792 | 0.696 | VAVVDYVEPSP [TXNRD2_Y70] | 0.415 | 0.53 | 0.776 | 0.912 | 0.603 | 0.561 | 0.416 | 0.974 | 0.627 | 0.683 | 0.454 | 0.52 | 1.35 |
| 0.527 | 0.694 | 0.713 | DFTSRYLSASD [PKHD1_Y828_N830S] | 0.46 | 0.466 | 0.564 | 0.625 | 0.535 | 0.549 | 0.329 | 0.846 | 0.546 | 0.605 | 0.453 | 0.42 | 0.79 |
| 0.866 | 1.05 | 1.16 | CTTIHKNYMCN [TP53_Y234_Y234K] | 0.484 | 0.395 | 0.503 | 0.702 | 0.499 | 0.515 | 0.404 | 0.792 | 0.603 | 0.56 | 0.409 | 0.406 | 0.733 |
